# ± gives the standard deviation.
# Assay: protein stability index of a GFP-peptide fusion (GPS, HEK-293T) (PSI 1-6); higher = more stable
# [1] = treatment: DMSO, c terminus: a fixed tail appended
# [2] = treatment: MLN4924 1 uM, 8 h, c terminus: a fixed tail appended
# 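Note: 24-mer peptide tiles fused after GFP, lentivirally expressed, FACS-sorted into six equal bins by GFP/DsRed ratio, decoded by Illumina sequencing, PSI is the read-weighted mean bin number.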
Sequence,protein stability index [1],protein stability index [2],"protein stability index (treatment: DMSO, c terminus: native)","protein stability index (treatment: MLN4924 1 uM, 8 h, c terminus: native)"
AATGGATLAQTISEAAIGGAMLGQ [HDAC6],4.1 ± 0.57,4.11 ± 0.21,,
IKKLIYVHLVIWLLLVAKMSVGHL [JAGN1],3.31 ± 0.35,3.13 ± 0.24,,
VEVGDKTHWAVGVCRDSVSRKGEL [TRIM39],3.06 ± 0.15,3.2 ± 0.17,,
CAKYTYPVCSALLDPVLQAPGTGP [FANCE],2.65 ± 0.14,2.26 ± 0.17,,
ELVLPFQELQIDDNEYAYLKAIIF [HNF4A],2.16 ± 0.14,2.37 ± 0.35,,
PLVALDTDSDDDFDMSRYSSSGYS [FAM219A],4.59 ± 0.52,4.76 ± 0.38,,
ERERLYPFSECGEAVSDSTPFLTN [ZNF263],4.16 ± 0.16,4.11 ± 0.27,,
MWGQSLLPPVSTSFTTGGLRIPFP [TNXB],2.3 ± 0.41,2.42 ± 0.16,,
GTEFMQDPDEEHLKKSSQVPRTEA [PDLIM7],5.47 ± 0.12,5.23 ± 0.26,,
GKSGLRVSCLGLGTWVTFGGQITD [KCNAB2],2.2 ± 0.61,2.04 ± 0.64,,
VVPGDHLLEPEVADGGGAPPQGGC [KCNA3],5.37 ± 0.14,5.29 ± 0.12,,
EDERVVGKEQGQNLARQWNNCAFL [RAP1B],4.23 ± 0.23,4.09 ± 0.25,,
TLVQREEPLRILSKYHRFISFTLY [CDS2],2.95 ± 0.8,2.8 ± 0.86,,
IVRLHDSISEEGFHYLVFDLVTGG [CAMK2B],2.85 ± 0.66,2.65 ± 0.52,,
YVFYLAVGNYRLKEYEKALKYVRG [FIS1],2.79 ± 0.36,2.39 ± 0.58,,
LTVVCAAGAEPLPRNGDQWHEIRQ [WEE1],2.55 ± 0.34,2.49 ± 0.4,,
EKPLGRVGVFLDFESGSVSFLNVT [TRIM43],2.28 ± 0.33,2.17 ± 0.55,,
MLSIFYFAIPVGSGLGYIAGSKVK [SPNS1],2.83 ± 0.34,3.05 ± 0.4,,
YQSKGYNDDYYEESYFTTRTYGEP [EMD],2.78 ± 0.2,3.22 ± 0.29,,
TAFNFFKMAVSRHLTRGRKMAHVI [BRF1],2.66 ± 0.61,2.33 ± 0.36,,
NRRMVGPDVIPLPHIYGARIKGVE [FAM189A2],3.19 ± 0.11,3.15 ± 0.27,,
LPSLVLARLVFVPLLLLCNIKPRR [SLC29A1],2.79 ± 0.57,2.73 ± 0.41,,
CWDMYRHDIDCQWVDITDVPPGDY [LOXL2],2.7 ± 0.36,3.11 ± 0.3,,

Sequence,protein stability index [1],protein stability index [2],"protein stability index (treatment: DMSO, c terminus: native)","protein stability index (treatment: MLN4924 1 uM, 8 h, c terminus: native)"
RRQCRPEIRMWQTREKAKFSDGEK [PHTF1],3.87 ± 0.29,4.23 ± 0.051,,
LPGNHSTSQEIFRQRFRHLRYQET [ZNF232],3.13 ± 0.17,3.39 ± 0.19,,
ARRELQAEREALQARLRDVSRREG [ZBED3],4.79 ± 0.15,4.8 ± 0.18,,
QEELTRINQSFTGAERKAALCELL [IQUB],3.41 ± 0.28,3.63 ± 0.17,,
ENNYYWSASECMQDFNTMFTNCYI [BRD3],2.28 ± 0.67,2.49 ± 0.44,,
FAEKGELRKSIFSESRKPTVSIME [TRIM29],2.37 ± 0.6,3.09 ± 0.59,,
AEPSRFSSSDSDFDDEEPRKFYVH [FCHO1],4.87 ± 0.18,4.87 ± 0.13,,
LLLYRIRKDVGCNRFEVTLEKSNK [VPS39],2.21 ± 0.35,2.14 ± 0.3,,
QTESALSKKLRAILPKQSRKSMLD [LCOR],3.05 ± 0.098,3.14 ± 0.2,,
EVKKKGKMKKLGQAMEEDLIVGLQ [HDAC6],4.55 ± 0.72,4.75 ± 0.14,,
QFILRVSPDLEWHAACLKCAECSQ [ISL2],2.16 ± 0.34,2.19 ± 0.34,,
IQRIDENVLGAQLDVEAAHSEILK [STX5],4.15 ± 0.17,4.22 ± 0.25,,
IPSTPEEVSADDETPNPPQSAQIA [MAGEA10],5.42 ± 0.1,5.44 ± 0.16,,
CQVEVRLLLAYNSSARIPKCPWME [INTS4],3.21 ± 0.91,3.1 ± 0.25,,
SQNSFLVQEVMEEEWNALQSVENC [RPAIN],4.53 ± 0.29,4.52 ± 0.32,,
CDLFDREIVVTISWAKSIPGFSSL [ESRRA],3.28 ± 0.16,2.97 ± 0.4,,
KPVDIWACGVILYILLVGYPPFWD [CAMK2B],3.27 ± 0.31,3.03 ± 0.17,,
LVPETEDDRKLAALLKFHTLDSYE [YJU2B],3.62 ± 0.34,3.58 ± 0.22,,
SAGRSMPEASDQEEHLSPLDFLHS [RNF180],5.07 ± 0.12,4.88 ± 0.28,,
EDGVWYSVAPMNVRRGLAGATTLG [KLHL12],3.17 ± 0.23,3.3 ± 0.17,,
ISVQNYKQVCKIAALHGLEETKKL [KLHL14],2.29 ± 0.24,2.31 ± 0.3,,
DLPSSLLLPEDMALRNLPPLRAAH [SMG5],3.56 ± 0.29,3.44 ± 0.16,,
GRCATRAFHRKSHSLDLNISEKLT [RNF180],3.73 ± 0.43,3.63 ± 0.42,,

Sequence,protein stability index [1],protein stability index [2],"protein stability index (treatment: DMSO, c terminus: native)","protein stability index (treatment: MLN4924 1 uM, 8 h, c terminus: native)"
EAMLYHNQTAELRELLEFTHMYLQ [P3H4],2.48 ± 0.37,2.69 ± 0.62,,
VTKSPEKRSSLPRPSSILPPRRGV [MAP2],4.58 ± 0.16,4.72 ± 0.19,,
ESTFKNTEISFILGQEFDEVTADD [FABP4],4.74 ± 0.13,5.03 ± 0.18,,
SQENSINPIQKEEDEGVDLSEGSS [SPANXN3],5.5 ± 0.2,5.64 ± 0.084,,
SLNKQIAQLQDFVRAKGSQSGRHL [STX5],3.08 ± 0.23,3.14 ± 0.55,,
GYGGGLGAGFGGGLGAGFGGGFAG [KRT16],2.65 ± 0.38,2.47 ± 0.28,,
MGSSQATMTSSQSMNFSMMSTNTV [CLINT1],3.28 ± 0.27,3.64 ± 0.25,,
CAINKVGVSFSTVENELMISYLMF [FAM98B],2.63 ± 0.48,2.81 ± 0.41,,
AKSLSFRKGELVTASKAIIEKEYQ [ADD1],3.71 ± 0.19,3.94 ± 0.45,,
KKLRFHPKQLYFSARQGELQKVLL [EHMT1],3.28 ± 0.71,2.63 ± 0.45,,
HYEFNLSRMKFRGNGALSNISDLP [LCOR],2.7 ± 0.18,2.76 ± 0.23,,
MALEPNTTFLRKSLKAALKHLGP [FANCE],,,2.48 ± 0.25,2.33 ± 0.17
SYYIIQHKPKNSEELYKEIDGVAT [PTPRD],2.98 ± 0.4,3.18 ± 0.66,,
RHRLITQVYLSHTAWTEACQVEVR [INTS4],2.37 ± 0.15,2.43 ± 0.51,,
LQLFSSTLVGCWSDVVGRRSSLLA [MFSD9],2.59 ± 0.65,2.38 ± 0.47,,
QRGHYRVARILIDLCSDVNVCSLL [RIPK4],2.9 ± 0.7,2.69 ± 0.28,,
EVQAVHKNTTYDLIANIVHDGKPS [USP39],3.69 ± 0.17,3.87 ± 0.32,,
AYHDPMLKLSIMSEEELTHIFGDL [NET1],3.28 ± 0.24,3.5 ± 0.48,,
QLIDPDENKENEAFEFKKPVRPVS [CDC25A],3.59 ± 0.41,4.03 ± 0.27,,
EPPKCLDPCVISQEIMEKYNIKLK [CFHR2],2.84 ± 0.27,2.87 ± 0.34,,
GMSLAKELIFSARVLDGKEAKAVG [AUH],3.45 ± 0.13,3.48 ± 0.17,,
AALDGGRSLEELTRLAFELFAEEQ [LPCAT4],2.91 ± 0.24,3.33 ± 0.38,,
SKVLSLQDLCCRTIVSCTPVHLVD [RAB40A],3.08 ± 0.27,2.98 ± 0.31,,

Sequence,protein stability index [1],protein stability index [2],"protein stability index (treatment: DMSO, c terminus: native)","protein stability index (treatment: MLN4924 1 uM, 8 h, c terminus: native)"
ACFLVRGLLLRGAVDGILHMFTPK [SLC6A17],2.39 ± 0.73,2.83 ± 1.2,,
PRIIKAAPSCAIMISTYEFGKSFF [SLC25A39],2.56 ± 0.49,2.28 ± 0.32,,
DITVSVSTSFLPELSSVHPPHYFF [FBXO3],2.79 ± 0.48,2.63 ± 0.58,,
NMTQDEFKSLFGSIGDIESCKLVR [ELAVL3],3.28 ± 0.15,3.33 ± 0.46,,
CQECGKTFRVSSDLIKHQRIHTEE [ZNF75A],5.26 ± 0.4,5.41 ± 0.31,,
KSFSMANGMNAVMMHGRSYSLASG [RAB40C],3.08 ± 0.26,3.03 ± 0.098,,
SSHEVKALGAMWKLHKSQLSQALN [TRIM9],2.7 ± 0.41,2.58 ± 0.27,,
GYELGIISGALLQIKTLLALSCHE [SLC2A12],3.61 ± 0.26,3.71 ± 0.1,,
LQGTESLNRATQSIERSHRIATET [VTI1B],4.65 ± 0.18,4.76 ± 0.14,,
AMFPETLDEGMQIPSTQFDAAHPT [CTNNB1],4.5 ± 0.091,4.49 ± 0.28,,
KPVGRQACDLQPCPTEPPDDSCQD [ADAMTSL2],5.46 ± 0.34,5.76 ± 0.075,,
EFNHTGELLATGDKGGRVVIFQRE [PPP2R2B],3.18 ± 0.24,3.19 ± 0.22,,
AAGKAEVVLGNIIKKKGWRRSSLV [KCNAB2],2.87 ± 0.24,2.96 ± 0.31,,
KWKVGIPSDPLVSIGALISKAHLE [ALDH8A1],2.48 ± 0.11,2.74 ± 0.17,,
TTLLRRYNIPHGPVVGSTRRLYEK [EMD],3.14 ± 0.16,3.25 ± 0.15,,
QTMAGSSPNTPQPVPEQSALCQGL [FAM104A],4.75 ± 0.19,4.84 ± 0.17,,
TASSISSSGGSSGSSSDNRTYRYS [DYRK1B],4.62 ± 0.051,4.67 ± 0.15,,
EVLLDHLKAHAEEKPPSGTKEKKH [PLAGL1],4.88 ± 0.2,5.08 ± 0.14,,
FPESETKECPFRVNKVCGAACSSK [SERPINB5],2.8 ± 0.56,3.55 ± 0.66,,
GQRGNTESKTDGDDTETVPSEQSH [TCF25],5.58 ± 0.21,5.54 ± 0.23,,
